These results are taken from patent US20260226147A1 (ATRECA, published 2026).

The target in assay [1] is T1, NANP6 peptide (NANPNANPNANPNANPNANPNANP) (Plasmodium falciparum, N-terminal biotin-aminohexanoic acid tag; unmodified C-terminus).
T1 construct: Synthetic peptide (CPC scientific); also called (NANPx6) peptide; long, major repeat peptide
T1 peptide: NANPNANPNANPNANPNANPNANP
The experiment in a line: SPR (Carterra LSA, 25 C), antibody immobilised on the chip, peptide as analyte.

The target in assay [2] is T2, NVDP3NANP2 peptide (NVDPNANPNVDPNANPNVDP) (Plasmodium falciparum, acetylated at N-terminus; amidated at C-terminus).
T2 construct: Synthetic peptide; also called long, minor repeat peptide
T2 peptide: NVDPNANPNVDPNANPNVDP
The description is as above.

Assay [3] concerns the target T3, recombinant CSP (Plasmodium falciparum circumsporozoite protein, 3D7) (Plasmodium falciparum, UniProt Q7K740 19-374).
T3 construct: also called CSP (3D7)
The experiment in a line: SPR (Carterra LSA), IgG captured, CSP analyte.

T3 sequence (Q7K740 19-374 limits assumed): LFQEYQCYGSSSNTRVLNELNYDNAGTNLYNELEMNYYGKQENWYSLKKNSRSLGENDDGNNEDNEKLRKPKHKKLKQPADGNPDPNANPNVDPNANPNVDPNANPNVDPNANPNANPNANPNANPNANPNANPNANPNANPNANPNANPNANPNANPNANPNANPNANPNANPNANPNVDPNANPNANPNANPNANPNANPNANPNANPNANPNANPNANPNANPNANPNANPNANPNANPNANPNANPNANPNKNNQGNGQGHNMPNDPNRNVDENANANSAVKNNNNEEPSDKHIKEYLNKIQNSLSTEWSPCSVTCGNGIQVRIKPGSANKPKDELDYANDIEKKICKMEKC

B1: AB-007163 (antibody, V domains shown)
VH: QVHLLESGGTVVQPGGSLRLSCEASGFIFSDYGMHWVRQVPGKGLEWVAVIWFDGSQKYYGDSVKGRFTVSRDNSKNTLYLQMNTLRADDTGIYYCATDIRGAYKVTDGGFDQWGHGTLVTVSP
VL: QSVLTQPPSISGAPGQRVTISCTGAGSNIGAGYEVHWYQQLPGTAPKLLMFADNNRPSGVPDRFSGSKSGTSASLAITGLQAEDEADYYCQSYDISLKNFVFGTGTTVTVL
Regarding B1, the binding result in assay [1] and in assay [2] was “binds” each time.

B2: AB-001558 (antibody, V domains shown)
VH: QVQLVESGGGVVQPGRSLRLSCAASGFTFSSYGMHWVRQAPGKGLEWVAVIWYDGNNKYYVDSVKGRFTISRDNSKNTLYLQMNSLRAEDTAVYYCARDHDADYVEKWGAFDLWGQGTMVTVSS
VL: EIVMTQSPATLSVSPGERATLSCRASQSVSSNLAWYQQKPGQAPRLLIYGASARATGIPARFSGSGSGTEFTLTISSLQSEDFAVYYCQQYNNGRTFGQGTKVEIT
Regarding B2, the Kd in assay [3] is 1.05 nM.
